Article PMC13376213, “Systematic discovery of motif-based interactions of the auxiliary domains of USP family deubiquitinases” (Nature Communications, 2026)

B1: GTPBP10 (protein, UniProt A4D1E9 1-387, looked up)
GTP-binding protein 10: MVHCSCVLFRKYGNFIDKLRLFTRGGSGGMGYPRLGGEGGKGGDVWVVAQNRMTLKQLKDRYPRKRFVAGVGANSKISALKGSKGKDCEIPVPVGISVTDENGKIIGELNKENDRILVAQGGLGGKLLTNFLPLKGQKRIIHLDLKLIADVGLVGFPNAGKSSLLSCVSHAKPAIADYAFTTLKPELGKIMYSDFKQISVADLPGLIEGAHMNKGMGHKFLKHIERTRQLLFVVDISGFQLSSHTQYRTAFETIILLTKELELYKEELQTKPALLAVNKMDLPDAQDKFHELMSQLQNPKDFLHLFEKNMIPERTVEFQHIIPISAVTGEGIEELKNCIRKSLDEQANQENDALHKKQLLNLWISDTMSSTEPPSKHAVTTSKMDII
B2: ILVBL (protein, UniProt A1L0T0 1-632, looked up)
2-hydroxyacyl-CoA lyase 2: METPAAAAPAGSLFPSFLLLACGTLVAALLGAAHRLGLFYQLLHKVDKASVRHGGENVAAVLRAHGVRFIFTLVGGHISPLLVACEKLGIRVVDTRHEVTAVFAADAMARLSGTVGVAAVTAGPGLTNTVTAVKNAQMAQSPILLLGGAASTLLQNRGALQAVDQLSLFRPLCKFCVSVRRVRDIVPTLRAAMAAAQSGTPGPVFVELPVDVLYPYFMVQKEMVPAKPPKGLVGRVVSWYLENYLANLFAGAWEPQPEGPLPLDIPQASPQQVQRCVEILSRAKRPLMVLGSQALLTPTSADKLRAAVETLGVPCFLGGMARGLLGRNHPLHIRENRSAALKKADVIVLAGTVCDFRLSYGRVLSHSSKIIIVNRNREEMLLNSDIFWKPQEAVQGDVGSFVLKLVEGLQGQTWAPDWVEELREADRQKEQTFREKAAMPVAQHLNPVQVLQLVEETLPDNSILVVDGGDFVGTAAHLVQPRGPLRWLDPGAFGTLGVGAGFALGAKLCRPDAEVWCLFGDGAFGYSLIEFDTFVRHKIPVMALVGNDAGWTQISREQVPSLGSNVACGLAYTDYHKAAMGLGARGLLLSRENEDQVVKVLHDAQQQCRDGHPVVVNILIGRTDFRDGSIAV
B3: IFT56 (protein, UniProt A0AVF1 1-554, looked up)
Intraflagellar transport …: MMLSRAKPAVGRGVQHTDKRKKKGRKIPKLEELLSKRDFTGAITLLEFKRHVGEEEEDTNLWIGYCAFHLGDYKRALEEYENATKEENCNSEVWVNLACTYFFLGMYKQAEAAGFKASKSRLQNRLLFHLAHKFNDEKKLMSFHQNLQDVTEDQLSLASIHYMRSHYQEAIDIYKRILLDNREYLALNVYVALCYYKLDYYDVSQEVLAVYLQQIPDSTIALNLKACNHFRLYNGRAAEAELKSLMDNASSSFEFAKELIRHNLVVFRGGEGALQVLPPLVDVIPEARLNLVIYYLRQDDVQEAYNLIKDLEPTTPQEYILKGVVNAALGQEMGSRDHMKIAQQFFQLVGGSASECDTIPGRQCMASCFFLLKQFDDVLIYLNSFKSYFYNDDIFNFNYAQAKAATGNTSEGEEAFLLIQSEKMKNDYIYLSWLARCYIMNKKPRLAWELYLKMETSGESFSLLQLIANDCYKMGQFYYSAKAFDVLERLDPNPEYWEGKRGACVGIFQMIIAGREPKETLREVLHLLRSTGNTQVEYMIRIMKKWAKENRVSI
B4: TMEM223 (protein, UniProt A0PJW6 1-202, looked up)
Transmembrane protein 223: MAAPWRRWPTGLLAVLRPLLTCRPLQGTTLQRDVLLFEHDRGRFFTILGLFCAGQGVFWASMAVAAVSRPPVPVQPLDAEVPNRGPFDLRSALWRYGLAVGCGAIGALVLGAGLLFSLRSVRSVVLRAGGQQVTLTTHAPFGLGAHFTVPLKQVSCMAHRGEVPAMLPLKVKGRRFYFLLDKTGHFPNTKLFDNTVGAYRSL
B5: BLTP3B (protein, UniProt A0JNW5 1-1464, looked up)
Bridge-like lipid transfer …: MAGIIKKQILKHLSRFTKNLSPDKINLSTLKGEGELKNLELDEEVLQNMLDLPTWLAINKVFCNKASIRIPWTKLKTHPICLSLDKVIMEMSTCEEPRSPNGPSPIATASGQSEYGFAEKVVEGISVSVNSIVIRIGAKAFNASFELSQLRIYSVNAHWEHGDLRFTRIQDPQRGEVLTFKEINWQMIRIEADATQSSHLEIMCAPVRLITNQSKIRVTLKRRLKDCNVIATKLVLILDDLLWVLTDSQLKAMVQYAKSLSEAIEKSTEQRKSMAPEPTQSSTVVASAQQVKTTQTSNAPDVNDAIVKLFNDFDVKETSHHLVISHLDLHICDDIHAKEKESNRRITGGAMQLSFTQLTIDYYPYHKAGDSCNHWMYFSDATKTKNGWANELLHEFECNVEMLKQAVKDHNVGSPPKSPTHASPQHTQTEKDYPLKGTCRTPSVLSQQSKAKLMSSSVVVRLADFNIYQVSTAEQCRSSPKSMICCNKKSLYLPQEMSAVYIEFTEYYYPDGKDFPIPSPNLYSQLNALQFTVDERSILWLNQFLLDLKQSLNQFMAVYKLNDNSKSDEHVDVRVDGLMLKFVIPSEVKSECHQDQPRAISIQSSEMIATNTRHCPNCRHSDLEALFQDFKDCDFFSKTYTSFPKSCDNFNLLHPIFQRHAHEQDTKMHEIYKGNITPQLNKNTLKTSAATDVWAVYFSQFWIDYEGMKSGKGRPISFVDSFPLSIWICQPTRYAESQKEPQTCNQVSLNTSQSESSDLAGRLKRKKLLKEYYSTESEPLTNGGQKPSSSDTFFRFSPSSSEADIHLLVHVHKHVSMQINHYQYLLLLFLHESLILLSENLRKDVEAVTGSPASQTSICIGILLRSAELALLLHPVDQANTLKSPVSESVSPVVPDYLPTENGDFLSSKRKQISRDINRIRSVTVNHMSDNRSMSVDLSHIPLKDPLLFKSASDTNLQKGISFMDYLSDKHLGKISEDESSGLVYKSGSGEIGSETSDKKDSFYTDSSSILNYREDSNILSFDSDGNQNILSSTLTSKGNETIESIFKAEDLLPEAASLSENLDISKEETPPVRTLKSQSSLSGKPKERCPPNLAPLCVSYKNMKRSSSQMSLDTISLDSMILEEQLLESDGSDSHMFLEKGNKKNSTTNYRGTAESVNAGANLQNYGETSPDAISTNSEGAQENHDDLMSVVVFKITGVNGEIDIRGEDTEICLQVNQVTPDQLGNISLRHYLCNRPVGSDQKAVIHSKSSPEISLRFESGPGAVIHSLLAEKNGFLQCHIENFSTEFLTSSLMNIQHFLEDETVATVMPMKIQVSNTKINLKDDSPRSSTVSLEPAPVTVHIDHLVVERSDDGSFHIRDSHMLNTGNDLKENVKSDSVLLTSGKYDLKKQRSVTQATQTSPGVPWPSQSANFPEFSFDFTREQLMEENESLKQELAKAKMALAEAHLEKDALLHHIKKMTVE

Legend:
FLAG-USP33 = experiment: IP-MS of FLAG-USP33 and variants vs empty vector; format: cell-based, human
Experimental: For transfection, 1x10^6 HEK293 cells were seeded in 10 cm dishes with DMEM, 10% FBS, 1% L-G (without antibiotic) medium, incubated at 37 °C, with 5 % CO2 for 24 h. Cells were transfected with a transfection mix containing […] of Opti-MEM (Thermo Fisher Scientific), 20 μL of PEI stock (1 mg/mL) and […] of the desired cDNA. For co-transfection, 2.5 μg of DNA of each plasmid was used. The mix was vortexed for 15 s and incubated at room temperature for 15–20 min. The transfection mix was added to the dish and gently mixed. Plates were incubated at 37 °C for 36–48 h before harvesting. For USP33 constructs, 5 μM Bortezomib (proteasome inhibitor) was added 4 hours before harvesting the cells.
FLAG fusion proteins were immunoprecipitated from HEK293 cells transfected with plasmids encoding the protein of interest using the anti-FLAG M2 affinity gel from Sigma-Aldrich. Cell pellets were lysed with 100–200 μL/per dish lysis buffer (Pierce RIPA buffer, 1X protease inhibitor (Roche), 50 unit/μL of Benzonase Nuclease) rotating at 4 °C for 30–45 min. […] The cell lysate was clarified by centrifugation at 17,000 x g, at 4 °C for 12 min, and the supernatant was transferred to a clean, pre-chilled low-binding Eppendorf tube. […] The IP samples were centrifuged at 6500 x g at 4 °C for 30 s. The supernatant containing the unbound proteins was transferred to a clean tube. The resin was washed three times with 500 μL of TBS, centrifuged at 6500 x g at 4 °C for 30 s. The bound FLAG fusion protein was eluted with 100 μL of 150 ng/μL 3X FLAG peptide (Sigma) in TBS and incubated in the cold room for 1 h or overnight. The tube was centrifuged at 6500 x g at 4 °C for 30 s; the eluted proteins were transferred to a clean tube. The eluted proteins were prepared for analysis by western blot or Mass Spectrometry.
Immunoprecipitation (IP) was carried out as described above; four technical replicates of each IP condition were performed, and the empty vector was used as a negative control. The eluted protein was processed following the Strap-micro protocol (Protifi). The IP elution containing 1–100 μg protein was 1:1 mixed with 2X lysis buffer (10% SDS, 100 mM TEAB pH 8.5). […] Samples were vortexed, mixed with 165 μL of 100 mM TEAB in 90% methanol, and passed through an S-Trap micro column at 4000 g for 30 s to trap the proteins. The column was washed with 150 μL of 100 mM TEAB in 90% methanol (at 4,000 x g for 30 seconds) three times. The S-Trap column was centrifuged again and transferred to a clean 2 mL tube for digestion with 20 μL of digestion buffer (1 μg trypsin per 10 μg sample in 50 mM TEAB), at 37 °C overnight in a thermomixer without shaking. The digested peptides were eluted with […] of 50 mM TEAB in water, […] of 0.2 % formic acid in water, and […] of 50 % acetonitrile in water, centrifuging at 4000 x g for 1 min each time. The three elutions were pooled in a low-binding tube, placed on dry ice until frozen, dried in a SpeedVac vacuum (Thermo Scientific), and proceeded with the LCMS analysis.
Eluted peptides were resuspended in water supplemented with 0.015% dodecyl maltoside and 0.1% formic acid and were injected on a Vanquish Neo UHPLC System operating in trap and elute mode coupled to an Orbitrap Astral Mass Spectrometer (Thermo Fisher Scientific). […] Eluted peptides were analyzed using data-independent acquisition mode on the mass spectrometer.
Peptides were searched against the Uniprot Swissprot Human database (released on 02/01/2023) supplemented with the USP20 and USP33 mutants using DiaNN (v1.9.0)[62] operating in library-free mode. Data filtering and statistical analysis were carried out in Python (v3.9.0) using the packages pandas, numpy, sklearn, scipy, rpy2, Plotnine, and Plotly and R (v4.4.3) using the package limma.
Protein groups identified with a single peptide or quantified in fewer than three replicates in at least 1 condition were filtered out. […]

FLAG-USP20 = experiment: IP-MS of FLAG-USP20 and variants vs empty vector; format: cell-based, human
Experimental: For transfection, 1x10^6 HEK293 cells were seeded in 10 cm dishes with DMEM, 10% FBS, 1% L-G (without antibiotic) medium, incubated at 37 °C, with 5 % CO2 for 24 h. Cells were transfected with a transfection mix containing 970 mL of Opti-MEM (Thermo Fisher Scientific), 20 μL of PEI stock (1 mg/mL) and 5 mg of the desired cDNA. For co-transfection, 2.5 μg of DNA of each plasmid was used. The mix was vortexed for 15 s and incubated at room temperature for 15–20 min. The transfection mix was added to the dish and gently mixed. Plates were incubated at 37 °C for 36–48 h before harvesting. For USP33 constructs, 5 μM Bortezomib (proteasome inhibitor) was added 4 hours before harvesting the cells.
FLAG fusion proteins were immunoprecipitated from HEK293 cells transfected with plasmids encoding the protein of interest using the anti-FLAG M2 affinity gel from Sigma-Aldrich. […] The cell lysate was clarified by centrifugation at 17,000 x g, at 4 °C for 12 min, and the supernatant was transferred to a clean, pre-chilled low-binding Eppendorf tube. […] The IP samples were centrifuged at 6500 x g at 4 °C for 30 s. The supernatant containing the unbound proteins was transferred to a clean tube. The resin was washed three times with 500 μL of TBS, centrifuged at 6500 x g at 4 °C for 30 s. The bound FLAG fusion protein was eluted with 100 μL of 150 ng/μL 3X FLAG peptide (Sigma) in TBS and incubated in the cold room for 1 h or overnight. The tube was centrifuged at 6500 x g at 4 °C for 30 s; the eluted proteins were transferred to a clean tube. The eluted proteins were prepared for analysis by western blot or Mass Spectrometry.
Immunoprecipitation (IP) was carried out as described above; four technical replicates of each IP condition were performed, and the empty vector was used as a negative control. The eluted protein was processed following the Strap-micro protocol (Protifi). The IP elution containing 1–100 μg protein was 1:1 mixed with 2X lysis buffer (10% SDS, 100 mM TEAB pH 8.5). […] Samples were vortexed, mixed with 165 μL of 100 mM TEAB in 90% methanol, and passed through an S-Trap micro column at 4000 g for 30 s to trap the proteins. The column was washed with 150 μL of 100 mM TEAB in 90% methanol (at 4,000 x g for 30 seconds) three times. The S-Trap column was centrifuged again and transferred to a clean 2 mL tube for digestion with 20 μL of digestion buffer (1 μg trypsin per 10 μg sample in 50 mM TEAB), at 37 °C overnight in a thermomixer without shaking. The digested peptides were eluted with 40 mL of 50 mM TEAB in water, 40 mL of 0.2 % formic acid in water, and 40 mL of 50 % acetonitrile in water, centrifuging at 4000 x g for 1 min each time. The three elutions were pooled in a low-binding tube, placed on dry ice until frozen, dried in a SpeedVac vacuum (Thermo Scientific), and proceeded with the LCMS analysis.
Protein groups identified with a single peptide or quantified in fewer than three replicates in at least 1 condition were filtered out. Protein group intensities were median normalized and missing values were imputed using a Gaussian distribution centered on the median with a downshift of 1.8 and width of 0.3 (relative to the standard deviation).

[1] = IP-MS, FLAG-USP33-ΔUBP vs EV, comparison bh_2 Sample_Limma_ImpMedInt_USP33_UBP_domain/EV
[2] = IP-MS, FLAG-USP33-ΔDUSP2 vs EV, comparison bh_2 Sample_Limma_ImpMedInt_USP33_DUSP2_domain/EV
[3] = IP-MS, FLAG-USP33 vs EV, comparison USP33_wt/EV, Limma
[4] = Table S7c USP33 MS_and_motif, bait USP33
[5] = IP-MS, FLAG-USP33 UBP mutant vs EV, comparison USP33_E86K_D90R/EV, Limma

Molecule	log2_FC (FLAG-USP33; [1])	log2_FC (FLAG-USP33; [2])	log2_FC (FLAG-USP33; [3])	log2_FC (FLAG-USP33; [4])	log2_FC (FLAG-USP33; [5])	log2_FC (FLAG-USP20; IP-MS, FLAG-USP20-ΔUBP vs EV, comparison bh_2 Sample_Limma_ImpMedInt_USP20_UBP_domain/EV)	log2_FC (FLAG-USP20; IP-MS, FLAG-USP20 vs EV, comparison USP20_wt/EV, Limma)	log2_FC (FLAG-USP20; Table S7b USP20 MS_and_motif, bait USP20)
B1	2.53	–	–	–	–	–	–	–
B2	–	1.755	1.749	1.749	–	–	–	–
B3	2.888	3.226	–	–	–	–	–	–
B4	4.59	4.626	4.38	4.38	4.422	4.865	4.082	4.082
B5	–	–	–	–	2.646	–	–	–
